In the data set the test system is MS2 coat protein. In words: apparent KD of MS2 coat protein; designed switch direction (-1 OFF switch, 1 ON switch): 1; higher = weaker reporter binding. The method, boiled down: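 An oligonucleotide input, 200 uM small-molecule ligand, or no input was present during titration of SNAP-549-labelled MS2 coat protein, which was doubled from 0.7 or 1.5 nM to 3 µM. Designed RNA switches had been transcribed on Illumina chips by stalled E. coli RNA polymerase. Apparent KD per design is the median over clusters of curves fitted to normalised cluster fluorescence.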

Where [1] appears, read: input ligand: microRNA oligo, concentration not stated.
The mark [2] stands for this setting: Eterna round: R95, input ligand: FMN 200 uM.
The mark [3] stands for this setting: Eterna round: R95, input ligand: microRNA oligo, concentration not stated.
Setting [4] is: Eterna round: R95, input ligand: none.

As to “GCUCGCGGCACAGGAUAUGGGUGCCUGUACAUGAGGAUCACCCAUGUUAAGGGACGGAUUACGAACCAGAAGGGUGAGGCGGGC [Axearisar] (Eterna round: R96, puzzle: Same State NG 2)”, the “apparent KD of MS2 coat protein” value reads like this: (input ligand: FMN 200 uM) 63.8 nM; under setting [1], 120 nM; (input ligand: none) 768 nM.
Taken in the same sequence, the figures for “GCUCGGCUGAUGGCCCACAUGAGGAUCACCCAUGUGACUGGGCAGGAUAUCUAGAUGCAGGAUGUAGAGAAGGGCCUGCCGAGC [SameState NG3 #41] (Eterna round: R96, puzzle: Same State NG 3)” were 358 nM, 98.8 nM and 155 nM.
“GCUCGUAUCACAGCCAACAUGAGGAUCACCCAUGUAUGUUGGUAGGAUAUCUAUAUUAAGGAUAUAGAGAAGGGCCGAACGAGC [SameState NG3 #11] (Eterna round: R96, puzzle: Same State NG 3)”: the “apparent KD of MS2 coat protein” value reads like this: (input ligand: FMN 200 uM) 121 nM; under setting [1], 126 nM; (input ligand: none) 145 nM.
Regarding “GCUCGUGGUAUUGUCUACAUGAGGAUCACCCAUGUAGGUGCGGAGGAUAUCUACGUGUCUCAUGUAGAGAAGGCCGUCACGAGC [SameState NG3 #98] (Eterna round: R96, puzzle: Same State NG 3)”, the “apparent KD of MS2 coat protein” value came out at 20.3 nM (input ligand: FMN 200 uM), 36.2 nM under setting [1] and 89.4 nM (input ligand: none).
Taken in the same sequence, the figures for “GCUGCAAAGGCAGGAUAUGGGUUCAGAGCGGAAGUGCGCUUUGACACAUGAGGAUCACCCAUGUCCCAGAAGGGCCCAAGCGGC [Ateanso] (Eterna round: R96, puzzle: Same State NG 2)” were 21.2 nM, 120 nM and 178 nM.
“GCUGCAAGGGCAGGAUAUGGGUCCAAAGCGCAAGUGCGCUUUGGUACAUGAGGAUCACCCAUGUCCCAGAAGGGCCCAAGCGGC [Quzaceza] (Eterna round: R96, puzzle: Same State NG 2)”: the “apparent KD of MS2 coat protein” value reads like this: (input ligand: FMN 200 uM) 15.6 nM; under setting [1], 83.1 nM; (input ligand: none) 140 nM.
As for “GCUGCAAUUAACGCCUACAUGAGGAUCACCCAUGUAUGUAGGCAGGAUAUCGUUUGCAAAGCAAACGAGAAGGGCCGUAGUAGC [Mat - Same State NG 3 - JL Mod - D34] (Eterna round: R96, puzzle: Same State NG 3)”, the “apparent KD of MS2 coat protein” value (input ligand: FMN 200 uM) came out at 28.9 nM, the “apparent KD of MS2 coat protein” value under setting [1] amounted to 48.9 nM and the “apparent KD of MS2 coat protein” value (input ligand: none) came to 73.8 nM.
“GCUGCAAUUAACGCCUACAUGAGGAUCACCCAUGUAUGUAGGCAGGAUAUCGUUUGCUUUGCAAACGAGAAGGGCUGUAGUAGC [JL SSNG3 1.13] (Eterna round: R96, puzzle: Same State NG 3)”: the “apparent KD of MS2 coat protein” value (input ligand: FMN 200 uM) came to 67.2 nM, the “apparent KD of MS2 coat protein” value under setting [1] turned out to be 84.5 nM and the “apparent KD of MS2 coat protein” value (input ligand: none) amounted to 108 nM.
As to “GCUGCAUGGGCAGGAUAUGGGUUCAGAGCGGAAGUGCGCUUUGAUACAUGAGGAUCACCCAUGUCCCAGAAGGGCCCAAGCGGC [Laleinza] (Eterna round: R96, puzzle: Same State NG 2)”, the “apparent KD of MS2 coat protein” value (input ligand: FMN 200 uM) was determined as 18.4 nM, the “apparent KD of MS2 coat protein” value under setting [1] was 53.7 nM and the “apparent KD of MS2 coat protein” value (input ligand: none) came to 97.3 nM.
Taken in the same sequence, the figures for “GCUGGAACUCACAUGAGGAUCACCCAUGUUCCGGAAACGGCACAGGAUAUCUGUCCGAAAAGGUCAGAGAAGGGUGGAACCAGC [Fiskers NG3ss - 88] (Eterna round: R96, puzzle: Same State NG 3)” were 189 nM, 43.5 nM and 90.4 nM.
In the case of “GCUUGACAUGAGGAUCACCCAUGUCAUGCGGACACAGGAUAUCGUGGCCUGAAGCCGUCAUGAGAAGGGUGACCAA [Bibiedce] (puzzle: Same State 1)”, the “apparent KD of MS2 coat protein” value under setting [2] was determined as 28.3 nM, the “apparent KD of MS2 coat protein” value under setting [3] was determined as 17.3 nM and the “apparent KD of MS2 coat protein” value under setting [4] stood at 17.6 nM.
Regarding “GCUUGCGACGCAGGAUAUGGGUGCCUGUACAUGAGGAUCACCCAUGUUAAGGAACGGAUUACGUCUCAGAAGGGCGUGGCAGGC [Ceerce Mod] (Eterna round: R96, puzzle: Same State NG 2)”, the “apparent KD of MS2 coat protein” value is, setting by setting: (input ligand: FMN 200 uM) 37.1 nM; under setting [1], 31.1 nM; (input ligand: none) 1250 nM.
“GGAAACAACACAGGAUAUCCAGAUGAUGAUGAAGGAGAAGGGUGUGCCCACAUGAGGAUCACCCAUGUUACAACGAAUAGAUAA [racquet 1] (Eterna round: R96, puzzle: Same State NG 1)”: the “apparent KD of MS2 coat protein” value is, setting by setting: (input ligand: FMN 200 uM) 457 nM; under setting [1], 666 nM; (input ligand: none) 1240 nM.
For the sequence “GGAAAGAGGUUAGGAUAUGCAUGUCUGGGACAUGAGGAUCACCCAUGUAAUAGAAGAAAUCUACAGUAGAAGGGACAAGGAAGG [AK SSNG2-V2-7] (Eterna round: R96, puzzle: Same State NG 2)”, the “apparent KD of MS2 coat protein” value by setting is: (input ligand: FMN 200 uM) 89.9 nM; under setting [1], 62.7 nM; (input ligand: none) 75.2 nM.
Consider “GGAAGGAAGUCAGGAUAUGAAUGGAAAGUACAUGAGGAUCACCCAUGUUAUGGAGGAAGGAAACGUUAGAAGGGAUAAGGAAGG [AK SSNG2-V2-1.1] (Eterna round: R96, puzzle: Same State NG 2)”, for which the “apparent KD of MS2 coat protein” value came out at 67.8 nM (input ligand: FMN 200 uM), 45.2 nM under setting [1] and 63.7 nM (input ligand: none).
Taken in the same sequence, the figures for “GGAAUAUGAUGUUACAUGAGGAUCACCCAUGUAGUAAUAACUAAGGAUAUCUGUUAAGAUAACUAAGAGAAGGUAGGAUCAUAA [AK SSNG3-V2-8.4] (Eterna round: R96, puzzle: Same State NG 3)” were 22.2 nM, 20.5 nM and 22.1 nM.
Consider “GGAAUAUGAUGUUACAUGAGGAUCACCCAUGUAGUGAUAACUAAGGAUAUCUGAAAGGAAGGAGAGGAGAAGGUAGGAUCAUAA [AK SSNG3-V2-13] (Eterna round: R96, puzzle: Same State NG 3)”, for which the “apparent KD of MS2 coat protein” value runs as follows: (input ligand: FMN 200 uM) 40.1 nM; under setting [1], 35.3 nM; (input ligand: none) 53.2 nM.
In the case of “GGAAUAUUUACAGGAUAUGAUUUGUAAAUUCGAUCAGAAGGGUAGAUGUCUUACACGGUUUGUUACAUGAGGAUCACCCAUGUU [SameState NG1 #11] (Eterna round: R96, puzzle: Same State NG 1)”, the “apparent KD of MS2 coat protein” value under setting [1] was 109 nM.
“GGACGUCAAUAUGAAUUCCCACAUGAGGAUCACCCAUGUCAUGAGGAUAUGGAUCCUAAUUGGAUCCAGAAGGCAUGGACGUCC [Fiskers NG3ss - 37] (Eterna round: R96, puzzle: Same State NG 3)”: the “apparent KD of MS2 coat protein” value is, setting by setting: (input ligand: FMN 200 uM) 17.8 nM; under setting [1], 13 nM; (input ligand: none) 17.8 nM.
With “GGAGAACAUGAGGAUCACCCAUGUAAGAGAAGUGUAGGAUAUGUGAGGAGCAGAGGAGGAACAGAAGGACAUGGAG [JR_SS!_Sub071] (puzzle: Same State 1)”, the “apparent KD of MS2 coat protein” value under setting [2] turned out to be 29.8 nM, the “apparent KD of MS2 coat protein” value under setting [3] came out at 41 nM and the “apparent KD of MS2 coat protein” value under setting [4] is 58.3 nM.
With “GGAGAACAUGAGGAUCACCCAUGUAAGCGUUAGCUAGGAUAUGCGGGAAGGAAGAGAGAAGCAGAAGGAGUCGGUA [JR_SS1_Sub032] (puzzle: Same State 1)”, the “apparent KD of MS2 coat protein” value is, setting by setting: under setting [2], 34.9 nM; under setting [3], 39.4 nM; under setting [4], 67.8 nM.
Taken in the same sequence, the figures for “GGAGAACAUGAGGAUCACCCAUGUGAGAGGGAUGUAGGAUAUGUGAGGAGUAGAGGAGGGACAGAAGGACAGAGAU [JR_SS!_Sub069] (puzzle: Same State 1)” were 28 nM, 62.9 nM and 52.6 nM.
As to “GGAGAGAGAGCGCAGGAUAUUUGAGGAGAAACAUGAGGAUCACCCAUGUGAGAGAGAGAGGAGAAAGAGAAGGGUGAGAGAGAGG [Altered State 2-15 - Jieux - Same State 2] (puzzle: Same State 2)”, the “apparent KD of MS2 coat protein” value is, setting by setting: under setting [2], 41.9 nM; under setting [3], 52.9 nM; under setting [4], 57.8 nM.
As to “GGAGCCAAGGCAGGAUAUUCAUAUUAAUAACAUGAGGAUCACCCAUGUAAGGCCAGAAGGCCUUGGGAGAAGGGCCAUGGCUCG [Xeonanis - 13 mod2] (Eterna round: R96, puzzle: Same State NG 2)”, the “apparent KD of MS2 coat protein” value is 21.4 nM (input ligand: FMN 200 uM), 70.4 nM under setting [1] and 106 nM (input ligand: none).
In the case of “GGAGCCAAGGCAGGAUAUUCAUAUUAAUAACAUGAGGAUCACCCAUGUUGGGCCAGAAGGCCUUGGGAGAAGGGCCAUGGCUCG [Xeonanis - 13 mod17] (Eterna round: R96, puzzle: Same State NG 2)”, the “apparent KD of MS2 coat protein” value is, setting by setting: (input ligand: FMN 200 uM) 20.1 nM; under setting [1], 24.7 nM; (input ligand: none) 36.5 nM.
For “GGAGCCAAGGCAGGAUAUUCAUAUUAAUUACAUGAGGAUCACCCAUGUUGGGCCAGAAGGCCUUGGGAGAAGGGCCAUGGCUCG [Xeonanis - 13 mod18] (Eterna round: R96, puzzle: Same State NG 2)”, the “apparent KD of MS2 coat protein” value is, setting by setting: (input ligand: FMN 200 uM) 27.1 nM; under setting [1], 56.5 nM; (input ligand: none) 84 nM.
For “GGAGCCAAGGCAGGAUAUUCAUAUUAUAAACAUGAGGAUCACCCAUGUAGGGCCAGAAGGCCUUGGGAGAAGGGCCAUGGCUCG [Xeonanis - 13 mod16] (Eterna round: R96, puzzle: Same State NG 2)”, the “apparent KD of MS2 coat protein” value runs as follows: (input ligand: FMN 200 uM) 20.2 nM; under setting [1], 53.8 nM; (input ligand: none) 71 nM.

(Values after the supplement of paper PMC9170038.)
